Measurements reported in a protein production outcome set (Wang et al. 2014).

Test: label from the status in PepcDB records

Sequence | protein production
MTKIAILGANGRLGRVVAKAFIDAGFDVRTVTRTGKVPAELDGATAVAGDALDRQSLISATEGVDIIFNGLNPIYTDWGKCLPMAENVMAACHANNALHLFPGTVYNYGSPMPAVITEDTPFHPTTEKGRIRCAMEELFRREADAGRVRTILLRAGDFFGGTGSGSWFDLVVAAKMSKGVYTAPGPVDLVHEWAYLPDFAVGFVALARNLDRLGSYEALNFPGHAVTDLEIKAAAEKALGRPLKMTSMPWWVLRAGSPFVAMWREIVSMSYLRFEPHQLASTRLEGIIGEIPHTPLDQAVAQALEDIGIATVKGMKAA | failed
MTKISKAACIGGGVIGGGWIARFLLAGIDVDVFDPHPEAGRIVGEIIANAEKAYAMLTGAPLPPRGKLTFCETLAEAVADADWIQESVPERLDLKRGVLTEIDAAARPEALIGSSTSGLLPTDLQRNMTHPERLFVAHPYNPVYLLPLVEIVGGEKTSAGTIRAAIERLAPIGMKGVHIAKEIEAFVGDRLLEALWREALWLIHDDICTVETLDDVIRYSFGLRWAQMGLFQTYRIAGGEAGMRHFLAQFGPCLAWPWTKLTDVVDLDDALIEKIGRQSDEQAAGLSIRALERIRDENLVGILQALKGGDNGKGWGAGKLLKDFEQTLWARGGDAAASADPSKPLRLVETKVSPAWVDYNGHMTEHRYLQVFGDTSDALLRLIGVDLAYVEAGHSYYTVESHIRHLGEAKLGQAIHSACQILTADEKRLHVFHTLRDTATGAVIATAEQMLLHVDSKEGKAVAAPAAVLDRVKAIAAAHAELALPEGAGRHVGQRR | failed
MTKITLSPQNFRIQKQETTLLKEKSTEKNSLAKSILAVKNHFIELRSKLSERFISHKNTESSATHFHRGSASEGRAVLTNKVVKDFMLQTLNDIDIRGSASKDPAYASQTREAILSAVYSKNKDQCCNLLISKGINIAPFLQEIGEAAKNVGLPGTTKNDVFTPSGAGANPFITPLISSANSKYPRMFINQHQQASFKIYAEKIIMTEVAPLFNECAMPTPQQFQLILENIANKYIQYTP | failed
MTKKAILLSFLGGFLSLSLEVIWIRLLGFQTFSLPQAFSFTLALFLLGIAFSSFIGKKVCQQGDASINYIGRIFFIAALFDCLAIGLISTTSNSFTNLVYSIFSIFCCALLRGIVFPIVHHLGSEHKKTGAAISNVYFANVLGCTIAPIFIGFYLLDQFTTQQTYLIVISITLIIACFCLTKRVFKAINALFAISVVFATALLPEKMISTLANEEDMQLETLIENKHGIIQVYLDKNQDHLVYGSNVYDGQLNVNLNHNSNGIHRAYLLPAHRK | failed
MTKLPATSDIYISFFMFTTNLQPDNLDYRRIVVAHIKKLQRFGYSGFEFPIAPGLPENYAQDLENYTNLRHYLDSEGLENVKISTNVGATRTFDPSSNYPEQRQEALEYLKSRVDITAALGGEIMMGPIVIPYGVFPTTDFNEPIWSDELQEHLKVRYANAQPILDKLGEYAEIKKVKLAIEPITHWETPGPNKLSQLIEFLKGVKSKQVGVVIDSAHEILDGEGPEIFKTQVEYLAQQGRLHYVQVSPPDRGALHTSWLPWKSFLTPIVKVYDGPIAVEIFNAIPAFTNSLRLTRRKFWIPDEDPPNQYPNAYDIADEAIKVTRKELKKIGSK | not failed
MTKMLKLFDAHFHIIDYRFPLITNQSYLPPEFTVEDYLQRAKPLNICGGAVVSGSFQAFDQSYLLAALSILGSDFVGVTQLPATVSDEEIIQLNQKGIRAVRFNVKRGGSENIHRLKYFAHRIYEMVRWHVEIYVDSKDLGDLTSLLLELPAVSIDHLGLSHSGFSQLLHLVEHGIKIKASGFGRVDFDVKKALQTIAQINPDALLFGTDLPSTRAPRPFLDSDIQIIQDLFDEKLTEKILYRNARNFYSKNSSELEHHHHHH | not failed
MTKNKKGKNKEVINNYEEEEDYNIIDHDENAEVDVIPEPDFNSNMVYLNIYDLDSVSKVVNTVARSVGAGAFHAGVEVYGYEYSFGYIMDGETGVTKTNARVMIQKNNEILKNIKTYRIHVNIYIYIFLLVFSKTPLTKEEVDLLVEVMKLQWIGDTYDILSRNCLNYADYFCNLLDVGGIPEWVMSLQKKVTWVKSNINIAASKLKELNKAAGIPNVINYLKKKYEDSNSSDDYKGCKVVVK | failed
MTKPQGAVAEKATPAVPKPQKVRVIVEFNKESILDYATEQKKTVAQLNQADVEKKLQSIKQEQDKVLKNIEKSVHFDSSKVKRYDAIINGVALDIQAQEIEKLKTIADVRRVYVSQEYVQTKPLLSSSGQLIGLPEVWNNSQYKGEGTVVAVIDSGVDFKHQALKIKEPNRAKYNKTSIEKLIHEKNLKGKFYSEKVPYGYNYYDYNDNLKDSYGVMHGMHVTGIVGANDDNQKLYGVAPNAQILAMKVFSDDQQNPTTFTDVWLKALDDAILLKADVVNMSLGTPAGFVHEGKDYPELEVIARACKAGIVIAVAAGNEGNITDGNTYGVKPLAENYDTALIANPALDDNTLAVASMENLKKHAHVLKFKDKKSGTEVTEVINLHVAPNASKTIIGLAVDLGAGAPSELSKHFDLSGKIAMLEIPEDNKSNGFLEKVQAITKLNPAAILLYNNAKVKDDLGSQLLVESEAAKFNIARITRSTYNNIKNNSNKIITILTERQAIDNSLAGQLSSYSSWGPTPDLRLKPEITAPGGHIFSTVEDNQYADKSGTSMAAPQVAGAAAVLKQYITDKKIPVDNAADFIKLLLMNTAQPIINKQSKDGKTPYFVRQQGSGAMNLAKALVTTVVATVTGTNDNNADGKLELRELKEKKFKARILLRNFGKTNKTYIISSEAIADPVDEKGFRTQNSEHLVSKKADAVTRKVTVEAGKTLAVDLDVDYSDAEALTRNNFLEGYLNLKDTEGVADLHLPFLGFYGSWTEQKAIDAFEGISEIGNGDKKRRVQFYVNKETNKTSSTFTTNGMLSLPIYNNTVFFSPNSPFYDKAGVRIAALRNMEYVQYSIIDPDTNKEVRVLGRSHDVRKLYRLDYRNSFAMMPDSIWDGKIKD | failed
MTKQKKLLPVASLLLGAAIWGVAWYPYRLLEQAGMRGELSTTLAYSIALLIGLILFRRQLRISEILNPAAGILFWISLSAGWTGIAYVLGIIHGEVMRVLLLFYLAPLWTILFSRILLQERLSRQGYAIILLSLAGALLLLWQPGSKLPLLASYGDWMGLSGGLAFALTNVLIRKDQQHGIQLKLLAVLSGTALTGFAATLLMESISDITHLHTHAWLILAGIGGLVFFLCILLQYGMTHIPANQAIVIMLFELVVAAIAAHFLTNEYLTGRDWAGGLMIASASLFSARVNRD | failed
MTKSKIIEIGPLVPAFEEEKIVILFGPTATNELREISVIHEFEAAPQSALSKGNTLQIGDQVYIIEEVGTEANKNLEELGHISIYFRSGQNEVLPGAIVVSPEVFPTLAIGDTIQF | failed
MTKSQIMDLSNFYQDTDYPSGRLIALLILSLGLTPAEIANLKKADFDTTFNILSIEKSQMKRILKLPEDLLPFLLESLEEDGDLVFEHNGKPYSRQWFFNQLTDFLNEKNEQQLTAQLLREQFILKQKENGKTMTELSRLLGLKTPITLERYYRLEHHHHHH | not failed
MTKSTPHPSSIIKAEQQSLLYLHIAVFLFGGTALFSKLIGLPALDITVYRTGIAALALFILLTLQKKQISLSSMKDYGIAILLGCVVGLHWVTYFTGMQMAGVTVGMIAFFTYPVITVFIEPFFNRTVPKMKDMITAFVVIIGIVLLIPEISFGNQITLGIVTGIISAVFFALRNILHKNYFSHYSGPHTMLYQTLVACLMLCLFVEVPPMQVTESDWLLLLLVGVVFTATPHALFASSLRSLSATTAGLISCLQPLYGSILAIILLHERPDILTIIGGLLVVSAAIFETWSVSRGRR | failed
MTKTWEQLSAIQPIGVKMLMNSIAKERISHAYLLEGEKGTGKFATAIQMAKSFLCSQRNRVEPCHVCTNCKRIDSGNHPNLHIVKPDGLSIKKQQIHDLQEEFSKTGLEANKKVYIIEHADRMTANAANALLKFLEEPSSDTTAILLTEQSHQILNTILSRCQVVTFRPLPTESLIRRLQDEGITVSLSTLAAQLTNSFDEALTLCNDEWFAQARALVIKLCEALEKDKASIFFVQEKWGKHFGEKEQLQQGLDMLLLIYKDLLYVQLGEEDRLVFREQKEMFESFSYAQKRIVSALFNILEAKNRINANVNAQLVFEQLVLRLQEG | failed
MTKYALVGDVGGTNARLALCDIASGEISQAKTYSGLDYPSLEAVIRVYLEEHKVEVKDGCIAIACPITGDWVAMTNHTWAFSIAEMKKNLGFSHLEIINDFTAVSMAIPMLKKEHLIQFGGAEPVEGKPIAVYGAGTGLGVAHLVHVDKRWVSLPGEGGHVDFAPNSEEEAIILEILRAEIGHVSAERVLSGPGLVNLYRAIVKADNRLPENLKPKDITERALADSCTDCRRALSLFCVIMGRFGGNLALNLGTFGGVFIAGGIVPRFLEFFKASGFRAAFEDKGRFKEYVHDIPVYLIVHDNPGLLGSGAHLRQTLGHIL | not failed
MTLDAAPHLHPAVLSPRPQPGRHRRDLHQSSRAFVLLTCIVATLALMLSLPAGLQAAEATVIVPFGGGILRDDAQTVAAAAARIEALRLSTASLGRDSAALFSAETPARLLSLTAATFEAHTTATSVVGYPPEVEVAVNIRTTPRGGDAATALRAALRAPEKLELREGILLHTRENLLEARQLALDAARHRQKAGTESESPYDRRFAALARTLRSLDTLERALSYLDGVWRHPIILAADMRQVVEASPEMPLGWTFLGEALLQLDRPQDAVEALDRALALPDAPVRARLARGIANLRLDLTALAVDDLSRVLREAPRLAPAWRARGAARMMRREYGPMCEDFIQACNLGDCEGLASARDAGHCLAPARPQTVKADD | failed
MTLFDGTPFEWAPGRIEVRARRECGASRKSLVVAAGVSYLARMIFSFDAFVTNALFDRSGRAMFALGDGTVRLQTDEGFVTVEAHGGPLGGAVLAAAVHPSGAGIVTGGDDGRVVWSRIEGGEVVATLIAEVKNKWIEHVAASAASGLIAFTVGKEVHVRDAADPAFARTFPHEKTVSGLAFEPKGRRLASATYGGAYLWYARIADQKPTVLKWAGSHIAVEFSPDGKFLISSMQENQLHGWRLSDGKDMRMGGYPSKIKSVAFFDKGNLLATAGASGAVIWPFAGANGPMGKEAAEIGFSRDSMVVRVAGIDPQPVCIAGQDSGKIWAAHMRNGRIETLKAEKGAPISALSVSADGKRLAWGDESGEAGVLEIPDLSGPRQFVG | failed
MTLGLKDLYYAVCTEADGAESYGTPKKMAEAMSADLSVKTADGSLYADDTLSESVTEFASGTLKLGIKDLTPEVLAELLGQAVDKNSVVWAGKEDEPPYVAVGFRAKKTGGKYRYVWLLKAKFKVPSEKYETKGESIKFNTPDIEASFTTRKKDNLWKADFVGTEESAAAKTWFTAVPEKAAAMESVLEHHHHHH | not failed
MTLHEHTDEETAEHNLPSKSSGSTRRLALVAVVNFFGFVIELAGGLLFGSVALISDALHMLFDMLAYAMAFGASYTAERFEGGEAWSYGLHRLEPVAAFLNGVLLLPMVGYIVWESYQRFLEPVAINPELTLIIATGGLLVNIGSVYVLQGGEMSLNERGAFYHLLGDAGGSVAVIVSTAAVAVFDLPIADPVAAVLIGLLVLASAGNVLRESTSILLERSPVSSEELRDELTTLDGVDQIEDLHVWQVCSQLTVATVRLTDTSTTLEEQRRIQSRVHDYLTNRGIDHATVELVGRTDPDTDPVGTTNHSH | failed
MTLISRILGLVRDVVIASLLGAGAMSDVFLFANRIPNFLRRLFAEGAFSKAFVPVLAEYNADNDLDKTREFIAKVSGTLGLLVTVVTLVAMLISPIIAALFGTGWFIDWFNDGPDAQKFTQASLLLKITFPYLWFITFIALSGAVLNTIGKFGVMAFSPVLLNVAMISMALFGADYFEQPDIALAWGIFLGGLLQFLFQIPFMIKERLLVKPKWAWKDEGVTKVRRLMIPALFGVSVTQINLLLNQVIASFLVTGSITWLYYSDRLIEFPLGLFGIAISTVVLPNLSRITKKKALNEEQRAIAFKQTLDWGVRMVVALGIPAMVGIAILAQPLIMTIFMRGKFVLADVIATSHALWIMCLGLNSYMLISVLANGFYARQNTKTPVKIGIIATIANICFGVLAIPFGYLGLAMASALSAAVNASLLYYNLVKEQAYCLSKKTVIFILKVAISACAMGVLVSYFSPTLTDWYAMKMWLKVHWLVWLISLAAISYFAVLMVLGIRKQDFRA | failed
